Source: patent US20260207767A1 (ANAVEON, published 2026)
Like-named read-outs stand apart in the source and are kept apart here.

Assays:
[1] = target: T1, human PD-1 expressed on cells (human, UniProt Q15116 25-288); assay: flow cytometry, CHO-S hPD-1
T1 construct: whole, on cells; cell line named under assay; also called CHO-S hPD-1; Raji PD-1
Procedure: CHO-S hPD-1 cells were incubated with a 5-fold serial dilution of the indicated humanized antibodies. Antibody binding was detected with goat anti-human IgG-PE. MFI were plotted over the antibody concentration to obtain EC50 values.

[2] = target: T2, hPD-1 Avi-Tag Biotin (AcroBiosystems PD1-H82E4) (human, UniProt Q15116 25-167, biotin on Avi-Tag); assay: SPR, Ab captured, PD-1 analyte
T2 construct: bought; also called human PD-1
Procedure: (§1) Anti-human Fc IgG (Jackson) was immobilized on amine reactive CM5 chips (GE Healthcare) using 1×HBS-EP+ running buffer (GE Healthcare). The test antibodies were captured at flow rate 10 μl/min with 30 s contact time. […] Regeneration was carried out with 10 mM Glycine-HCl, pH 1.5 at flow rate 10 μL/min. This protocol is to be used, unless stated otherwise, in determination of Kd wherever used to define the KD of antibodies specified herein, with adaptions where necessary with regard to the nature of the interaction partners.

[3] = target: T3, cynoPD-1 His (AcroBiosystems PD1-C5223) (cynomolgus monkey, UniProt B0LAJ3 25-170); assay: SPR, Ab captured, PD-1 analyte
T3 construct: also called cPD-1; cynomolgus PD-1 His-tagged
Procedure: as §1

[4] = target: T4, recombinant hPD-1 (construct not stated) (human, UniProt Q15116 25-167, limits assumed); assay: SPR, Ab captured, PD-1 analyte
T4 construct: also called huPD-1; Human PD1
Procedure: (§2) Recombinant humanized antibody variants of ZJN296 were expressed as human IgG1 in HEK293 cells. For SPR analysis (Biacore 8K, GE Healthcare) anti-human Fc IgG (Bethyl, A80-304P) was immobilized on CM5 chips (Cytiva) using 1×HBS-EP+ running buffer. […] 10 mM glycine (pH 1.5) as regeneration buffer was injected to flow cells following every dissociation phase.

[5] = target: T5, recombinant cynoPD-1 (construct not stated) (cynomolgus monkey, UniProt B0LAJ3 25-170); assay: SPR, Ab captured, PD-1 analyte
T5 construct: not shown: probably His as elsewhere
Procedure: as §2

hPD-1 His-tagged = target: T6, hPD-1 His-tagged (human, UniProt Q15116 25-167); assay: SPR, Ab captured, PD-1 analyte
T6 construct: also called recombinant hPD-1 (AcroBio)
Procedure: (§3) 10 mM glycine (pH 1.5) as regeneration buffer was injected to flow cells following every dissociation phase.

[6] = target: T3, cynoPD-1 His (AcroBiosystems PD1-C5223); assay: SPR, Ab captured, PD-1 analyte; remark: listed apart in the source
Procedure: as §3

T4 sequence (Q15116 25-167 limits assumed): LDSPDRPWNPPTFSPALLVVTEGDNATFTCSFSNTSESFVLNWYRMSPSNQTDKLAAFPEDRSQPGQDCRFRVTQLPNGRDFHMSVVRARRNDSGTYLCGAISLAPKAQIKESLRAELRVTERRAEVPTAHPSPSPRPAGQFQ
T6 sequence (Q15116 25-167 limits assumed): as above
T2 sequence (Q15116 25-167 limits assumed): as above
T5 sequence (B0LAJ3 entry or part of it limits assumed): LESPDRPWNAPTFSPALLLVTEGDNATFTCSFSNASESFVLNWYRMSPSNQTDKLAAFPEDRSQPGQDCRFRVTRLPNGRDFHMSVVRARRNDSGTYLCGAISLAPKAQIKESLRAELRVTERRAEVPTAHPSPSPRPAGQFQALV
T3 sequence (B0LAJ3 entry or part of it limits assumed): as above
T1 sequence (Q15116 25-288): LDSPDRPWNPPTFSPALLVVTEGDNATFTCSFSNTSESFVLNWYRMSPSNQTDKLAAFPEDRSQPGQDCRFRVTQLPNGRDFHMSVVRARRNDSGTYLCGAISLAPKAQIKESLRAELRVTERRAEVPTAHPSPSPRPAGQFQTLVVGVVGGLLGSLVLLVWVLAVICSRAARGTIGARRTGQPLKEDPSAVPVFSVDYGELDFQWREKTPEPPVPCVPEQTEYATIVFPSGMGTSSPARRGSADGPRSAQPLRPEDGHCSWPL

| Binder | EC50 [1] [nM] | Top MFI [1] [MFI] | Kd [2] [nM] | koff [2] [s⁻¹] | kon [2] [M⁻¹ s⁻¹] | Kd [3] [nM] | koff [3] [s⁻¹] | kon [3] [M⁻¹ s⁻¹] | Kd [4] [nM] | koff [4] [s⁻¹] | kon [4] [M⁻¹ s⁻¹] | Kd [5] [nM] | koff [5] [s⁻¹] | kon [5] [M⁻¹ s⁻¹] | Kd (hPD-1 His-tagged) [nM] | koff (hPD-1 His-tagged) [s⁻¹] | kon (hPD-1 His-tagged) [M⁻¹ s⁻¹] | Kd [6] [nM] | koff [6] [s⁻¹] | kon [6] [M⁻¹ s⁻¹] |
| --- | --- | --- | --- | --- | --- | --- | --- | --- | --- | --- | --- | --- | --- | --- | --- | --- | --- | --- | --- | --- |
| z5-XVT458 (antibody, human IgG1, kappa, V domains shown, hIgG1; numbering as for z1; also called GH + V067A + T073K) VH: QVQLVQSGAEVKKPGASVKVSCKASGYTFTNFYIHWVRQAPGQGLEWMGSIYPNYGDTAYNQKFKDRATMTTDKSTSTAYMELRSLRSDDTAVYYCARGYSYAMDYWGQGTTVTVSS VL: DIQMTQSPSSVSASVGDRVTITCSASQGISGDLNWYQQKPGKAPKLLIYHTSSLHSGVPSRFSGSGSGTDFTLTISSLQPEDFATYYCQYYSKDLLTFGGGTKLEIKR | 4.51 | 46200 | 15.9 | 0.00145 | 91400 | 57.3 | 0.00336 | 58600 | – | – | – | – | – | – | – | – | – | – | – | – |
| z0-XVT458 (antibody, human IgG1, kappa, V domains shown, hIgG1; also called GH + uVL) VH: QVQLVQSGAEVKKPGASVKVSCKASGYTFTNFYIHWVRQAPGQGLEWMGSIYPNYGDTAYNQKFKDRVTMTTDTSTSTAYMELRSLRSDDTAVYYCARGYSYAMDYWGQGTTVTVSS VL: DIQMTQSPSSVSASVGDRVTITCSASQGISGDLNWYQQKPGKAPKLLIYHTSSLHSGVPSRFSGSGSGTDFTLTISSLQPEDFATYYCQYYSKDLLTFGGGTKLEIKR | 5.74 | 45200 | 16.1 | 0.00147 | 91100 | 56.7 | 0.00358 | 63200 | – | – | – | – | – | – | – | – | – | – | – | – |
| z1-XVT458 (antibody, human IgG1, kappa, V domains shown, hIgG1; also called GH + V067A) VH: QVQLVQSGAEVKKPGASVKVSCKASGYTFTNFYIHWVRQAPGQGLEWMGSIYPNYGDTAYNQKFKDRATMTTDTSTSTAYMELRSLRSDDTAVYYCARGYSYAMDYWGQGTTVTVSS VL: DIQMTQSPSSVSASVGDRVTITCSASQGISGDLNWYQQKPGKAPKLLIYHTSSLHSGVPSRFSGSGSGTDFTLTISSLQPEDFATYYCQYYSKDLLTFGGGTKLEIKR | 5.85 | 45200 | 15.9 | 0.00146 | 92300 | 57.3 | 0.00359 | 62700 | – | – | – | – | – | – | – | – | – | – | – | – |
| z3-XVT458 (antibody, human IgG1, kappa, V domains shown, hIgG1; numbering as for z1; also called GH + T073K) VH: QVQLVQSGAEVKKPGASVKVSCKASGYTFTNFYIHWVRQAPGQGLEWMGSIYPNYGDTAYNQKFKDRVTMTTDKSTSTAYMELRSLRSDDTAVYYCARGYSYAMDYWGQGTTVTVSS VL: DIQMTQSPSSVSASVGDRVTITCSASQGISGDLNWYQQKPGKAPKLLIYHTSSLHSGVPSRFSGSGSGTDFTLTISSLQPEDFATYYCQYYSKDLLTFGGGTKLEIKR | 5.47 | 46200 | 16.2 | 0.00142 | 87400 | 57.7 | 0.00331 | 57400 | – | – | – | – | – | – | – | – | – | – | – | – |
| z4-XVT458 (antibody, human IgG1, kappa, V domains shown, hIgG1; numbering as for z1; also called GH + V067A + T071V) VH: QVQLVQSGAEVKKPGASVKVSCKASGYTFTNFYIHWVRQAPGQGLEWMGSIYPNYGDTAYNQKFKDRATMTVDTSTSTAYMELRSLRSDDTAVYYCARGYSYAMDYWGQGTTVTVSS VL: DIQMTQSPSSVSASVGDRVTITCSASQGISGDLNWYQQKPGKAPKLLIYHTSSLHSGVPSRFSGSGSGTDFTLTISSLQPEDFATYYCQYYSKDLLTFGGGTKLEIKR | 4.54 | 46700 | 13.3 | 0.00131 | 98800 | 51 | 0.00323 | 63300 | – | – | – | – | – | – | – | – | – | – | – | – |
| z6-XVT458 (antibody, human IgG1, kappa, V domains shown, hIgG1; numbering as for z1; also called GH + T071V + T073K) VH: QVQLVQSGAEVKKPGASVKVSCKASGYTFTNFYIHWVRQAPGQGLEWMGSIYPNYGDTAYNQKFKDRVTMTVDKSTSTAYMELRSLRSDDTAVYYCARGYSYAMDYWGQGTTVTVSS VL: DIQMTQSPSSVSASVGDRVTITCSASQGISGDLNWYQQKPGKAPKLLIYHTSSLHSGVPSRFSGSGSGTDFTLTISSLQPEDFATYYCQYYSKDLLTFGGGTKLEIKR | 3.93 | 46800 | 14.5 | 0.00133 | 92000 | 53.8 | 0.00314 | 58400 | – | – | – | – | – | – | – | – | – | – | – | – |
| z7-XVT458 (antibody, human IgG1, kappa, V domains shown, hIgG1; numbering as for z1; also called GH + V067A + T071V + T073K) VH: QVQLVQSGAEVKKPGASVKVSCKASGYTFTNFYIHWVRQAPGQGLEWMGSIYPNYGDTAYNQKFKDRATMTVDKSTSTAYMELRSLRSDDTAVYYCARGYSYAMDYWGQGTTVTVSS VL: DIQMTQSPSSVSASVGDRVTITCSASQGISGDLNWYQQKPGKAPKLLIYHTSSLHSGVPSRFSGSGSGTDFTLTISSLQPEDFATYYCQYYSKDLLTFGGGTKLEIKR | 3.88 | 46000 | 14.3 | 0.00136 | 95700 | 54.4 | 0.00321 | 58900 | – | – | – | – | – | – | – | – | – | – | – | – |
| ZJN296-0 (antibody, human IgG1, V domains shown, human IgG1; also called humanized ZJN296-0; GH + GL) VH: QVQLVQSGAEVKKPGASVKVSCKASGYDFTSHWMHWVRQAPGQGLEWMGAIDPSDSYTNYNQKFKGRVTMTTDTSTSTAYMELRSLRSDDTAVYYCARSPFDYWGQGTTVTVSS VL: DIQMTQSPSSLSASVGDRVTITCKASQDVSTAVAWYQQKPGKAPKLLIYSASYRYTGVPSRFSGSGSGTDFTFTISSLQPEDIATYYCQQHYSFPFTFGQGTKLEIK | – | – | – | – | – | – | – | – | 8.7 | 0.000495 | 56900 | 104 | 0.00641 | 61500 | – | – | – | – | – | – |
| ZJN296-2 (antibody, V domains shown, human IgG1; also called GH + T071V, GL) VH: QVQLVQSGAEVKKPGASVKVSCKASGYDFTSHWMHWVRQAPGQGLEWMGAIDPSDSYTNYNQKFKGRVTMTVDTSTSTAYMELRSLRSDDTAVYYCARSPFDYWGQGTTVTVSS VL: DIQMTQSPSSLSASVGDRVTITCKASQDVSTAVAWYQQKPGKAPKLLIYSASYRYTGVPSRFSGSGSGTDFTFTISSLQPEDIATYYCQQHYSFPFTFGQGTKLEIK | – | – | – | – | – | – | – | – | 5.72 | 0.000324 | 56500 | 72.7 | 0.00433 | 59600 | – | – | – | – | – | – |
| ZJN296-3 (antibody, V domains shown, human IgG1; also called GH + T073R, GL) VH: QVQLVQSGAEVKKPGASVKVSCKASGYDFTSHWMHWVRQAPGQGLEWMGAIDPSDSYTNYNQKFKGRVTMTTDRSTSTAYMELRSLRSDDTAVYYCARSPFDYWGQGTTVTVSS VL: DIQMTQSPSSLSASVGDRVTITCKASQDVSTAVAWYQQKPGKAPKLLIYSASYRYTGVPSRFSGSGSGTDFTFTISSLQPEDIATYYCQQHYSFPFTFGQGTKLEIK | – | – | – | – | – | – | – | – | 6.57 | 0.000369 | 56100 | 107 | 0.00511 | 47600 | – | – | – | – | – | – |
| ZJN296-6 (antibody, V domains shown, human IgG1; also called GH + T071V + T073R, GL) VH: QVQLVQSGAEVKKPGASVKVSCKASGYDFTSHWMHWVRQAPGQGLEWMGAIDPSDSYTNYNQKFKGRVTMTVDRSTSTAYMELRSLRSDDTAVYYCARSPFDYWGQGTTVTVSS VL: DIQMTQSPSSLSASVGDRVTITCKASQDVSTAVAWYQQKPGKAPKLLIYSASYRYTGVPSRFSGSGSGTDFTFTISSLQPEDIATYYCQQHYSFPFTFGQGTKLEIK | – | – | – | – | – | – | – | – | 3.22 | 0.000201 | 62600 | 43.9 | 0.00279 | 63600 | – | – | – | – | – | – |
| 21A08Ap1 (antibody, V domains shown, IgG with lambda light chain; also called 21A08p1; 21A8Ap1) VH: EVQLLESGGGLVQPGGSLRLSCAASGFTFSINAMTWVRQAPGKGLEWVSTISGSGFSTYYADSLKGRFTISRDNSKNTLYLQMNSLRAEDTAVYYCAKEVYGDYWGQGTLVTVSS VL: RSVLTQPPSASGTPGQRVSISCSGASSNIGSQSVFWYQQLPGTAPKLLIYSNNQRPSGVPDRFSGSKSGTSASLAISGLRSEDEADYYCAAWDDSLSIWVFGGGTKLTVL | – | – | – | – | – | – | – | – | – | – | – | – | – | – | 0.5 | 2.9e-05 | 57000 | 3 | 0.00016 | 52000 |
| 21A08Ap2 (antibody, V domains shown, IgG with lambda light chain) VH: EVQLLESGGGLVQPGGSLRLSCAASGFTFSINAMTWVRQAPGKGLEWVSTISGSGFSTYYADSLKGRFTISRDNSKNTLYLQMNSLRAEDTAVYYCAKEVYGDYWGQGTLVTVSS VL: RSVLTQPPSASGTPGQRVSISCSGASSNIGSSSVFWYQQLPGTAPKLLIYSNNQRPSGVPDRFSGSKSGTSASLAISGLRSEDEADYYCAAWDDSLSIWVFGGGTKLTVL | – | – | – | – | – | – | – | – | – | – | – | – | – | – | 0.66 | 4.2e-05 | 64000 | 3.2 | 0.00019 | 59000 |
| 21A08Ap3 (antibody, V domains shown, IgG) VH: EVQLLESGGGLVQPGGSLRLSCAASGFTFSINAMTWVRQAPGKGLEWVSTISGSGFSTYYADSLKGRFTISRDNSKNTLYLQMNSLRAEDTAVYYCAKEVYGDYWGQGTLVTVSS VL: not shown | – | – | – | – | – | – | – | – | – | – | – | – | – | – | 0.58 | 3.5e-05 | 60000 | 4.67 | 0.00025 | 55000 |
